Patent US20110300138A1 (published 2011)

How the values were obtained:
Test in all cases: cell-based or functional assay
[1] = molecular target: TSHR with Asp151 mutated to Ala, expressed in CHO cells (human) (UniProt P16473)
[2] = molecular target: TSHR with Thr104 mutated to Ala (expressed in CHO cells) (human) (UniProt P16473)
[3] = molecular target: TSHR with Gln235 mutated to Ala expressed in CHO cells (human) (UniProt P16473)
[4] = molecular target: wild type TSHR (human TSH receptor) expressed in CHO cells (human) (UniProt P16473)
[5] = molecular target: TSHR with Arg80 mutated to Ala expressed in CHO cells (human) (UniProt P16473)
[6] = molecular target: TSHR with Lys183 mutated to Ala expressed in CHO cells (human) (UniProt P16473)
[7] = molecular target: human TSHR (thyroid stimulating hormone receptor), full length, expressed in transfected CHO cells (human) (UniProt P16473)
[8] = molecular target: wild type human TSHR (full length) expressed in CHO cells (human) (UniProt P16473)
[9] = molecular target: wild type TSHR (human TSH receptor, full length) expressed in CHO cells (human) (UniProt P16473)
[10] = molecular target: TSHR with Asp43 mutated to Ala, expressed in CHO cells (human) (UniProt P16473)

5B3 IgG (antibody)
% inhibition of TSH stimulation, mutated TSHR; 5B3 10 µg/mL [1]: 11% | % inhibition of TSH stimulation, mutated TSHR; 5B3 100 µg/mL [1]: 0% | Mutated/wild type (%) of cyclic AMP produced; test sample: 5B3 10 µg/mL + TSH (3 ng/mL) [1]: 53% | Mutated/wild type (%) of cyclic AMP produced; test sample: 5B3 100 µg/mL + TSH (3 ng/mL) [1]: 57% | % inhibition of TSH stimulation; 5B3 10 µg/mL [2]: 7% | % inhibition of TSH stimulation; 5B3 100 µg/mL [2]: 6% | Cyclic AMP produced; 5B3 10 µg/mL + TSH 3 ng/mL [2]: 59.1 pmol/mL | Cyclic AMP produced; 5B3 100 µg/mL + TSH 3 ng/mL [2]: 60 pmol/mL | Mutated/wild type (%) of cyclic AMP produced; 5B3 10 µg/mL + TSH 3 ng/mL [2]: 71% | Mutated/wild type (%) of cyclic AMP produced; 5B3 100 µg/mL + TSH 3 ng/mL [2]: 68% | Experiment 1: % inhibition of TSH stimulation; 5B3 10 µg/mL [3]: 0% | Experiment 1: % inhibition of TSH stimulation; 5B3 100 µg/mL [3]: 0% | Experiment 1: Mutated/wild type (%) of cyclic AMP produced; 5B3 10 µg/mL + TSH 3 ng/mL [3]: 80% | Experiment 1: Mutated/wild type (%) of cyclic AMP produced; 5B3 100 µg/mL + TSH 3 ng/mL [3]: 63% | Experiment 2: % inhibition of TSH stimulation; 5B3 10 µg/mL [3]: 14% | Experiment 2: % inhibition of TSH stimulation; 5B3 100 µg/mL [3]: 0% | Experiment 2: Mutated/wild type (%) of cyclic AMP produced; 5B3 10 µg/mL + TSH 3 ng/mL [3]: 77% | Experiment 2: Mutated/wild type (%) of cyclic AMP produced; 5B3 100 µg/mL + TSH 3 ng/mL [3]: 95% | % inhibition of TSH stimulation, Exp 1: 5B3 10 µg/mL [4]: 0% | % inhibition of TSH stimulation, Exp 1: 5B3 100 µg/mL [4]: 0% | % inhibition of TSH stimulation, Exp 2: 5B3 10 µg/mL [4]: 0% | % inhibition of TSH stimulation, Exp 2: 5B3 100 µg/mL [4]: 0% | % inhibition of TSH stimulation: 5B3 10 µg/mL [4]: 0% | % inhibition of TSH stimulation: 5B3 100 µg/mL [4]: 0% | % inhibition of TSH stimulation; 5B3 10 µg/mL [4]: 0% | % inhibition of TSH stimulation; 5B3 100 µg/mL [4]: 0% | Cyclic AMP produced; 5B3 10 µg/mL + TSH 3 ng/mL [4]: 75.6 pmol/mL | Cyclic AMP produced; 5B3 100 µg/mL + TSH 3 ng/mL [4]: 68.3 pmol/mL | % inhibition of TSH stimulation; 5B3 10 µg/mL [5]: 0.3% | % inhibition of TSH stimulation; 5B3 100 µg/mL [5]: 4% | Cyclic AMP produced; 5B3 10 µg/mL + TSH 3 ng/mL [5]: 105 pmol/mL | Cyclic AMP produced; 5B3 100 µg/mL + TSH 3 ng/mL [5]: 101 pmol/mL | Mutated/wild type (%) of cyclic AMP produced; 5B3 10 µg/mL + TSH 3 ng/mL [5]: 102% | Mutated/wild type (%) of cyclic AMP produced; 5B3 100 µg/mL + TSH 3 ng/mL [5]: 107% | % inhibition of TSH stimulation, Exp 1: 5B3 10 µg/mL [6]: 24% | % inhibition of TSH stimulation, Exp 1: 5B3 100 µg/mL [6]: 17% | % inhibition of TSH stimulation, Exp 2: 5B3 10 µg/mL [6]: 9% | % inhibition of TSH stimulation, Exp 2: 5B3 100 µg/mL [6]: 9% | Cyclic AMP, Mutated/wild type (%), Exp 1: 5B3 10 µg/mL + TSH 3 ng/mL [6]: 93% | Cyclic AMP, Mutated/wild type (%), Exp 1: 5B3 100 µg/mL + TSH 3 ng/mL [6]: 91% | Cyclic AMP, Mutated/wild type (%), Exp 2: 5B3 10 µg/mL + TSH 3 ng/mL [6]: 104% | Cyclic AMP, Mutated/wild type (%), Exp 2: 5B3 100 µg/mL + TSH 3 ng/mL [6]: 111% | % Inhibition of K1-18 IgG stimulation; 10 ng/mL K1-18 IgG + 100 µg/mL 5B3 IgG [7]: 0% | % Inhibition of K1-18 stimulation; 10 ng/mL K1-18 + 100 µg/mL 5B3 IgG [7]: 0% | % Inhibition of K1-18 stimulation; 10 ng/mL KM 8 [K1-18] + 10 µg/mL 5B3 IgG [7]: 3.5% | % inhibition of TSH stimulation, 5B3 10 µg/mL, wild type TSHR [8]: 0% | % inhibition of TSH stimulation, 5B3 100 µg/mL, wild type TSHR [8]: 0% | Cyclic AMP produced (pmol/mL), 5B3 10 µg/mL + TSH 3 ng/mL, wild type TSHR [8]: 106 pmol/mL | Cyclic AMP produced (pmol/mL), 5B3 100 µg/mL + TSH 3 ng/mL, wild type TSHR [8]: 104 pmol/mL | % inhibition of TSH stimulation; 5B3 10 µg/mL [9]: 0% | % inhibition of TSH stimulation; 5B3 10 µg/mL; Experiment 1 [9]: 3% | % inhibition of TSH stimulation; 5B3 10 µg/mL; Experiment 2 [9]: 0% | % inhibition of TSH stimulation; 5B3 100 µg/mL [9]: 0% | % inhibition of TSH stimulation; 5B3 100 µg/mL; Experiment 1 [9]: 0% | % inhibition of TSH stimulation; 5B3 100 µg/mL; Experiment 2 [9]: 0% | Cyclic AMP produced; 5B3 10 µg/mL + TSH 3 ng/mL [9]: 53.9 pmol/mL | Cyclic AMP produced; 5B3 10 µg/mL + TSH 3 ng/mL; Experiment 1 [9]: 65.8 pmol/mL | Cyclic AMP produced; 5B3 10 µg/mL + TSH 3 ng/mL; Experiment 2 [9]: 68.6 pmol/mL | Cyclic AMP produced; 5B3 100 µg/mL + TSH 3 ng/mL [9]: 52.6 pmol/mL | Cyclic AMP produced; 5B3 100 µg/mL + TSH 3 ng/mL; Experiment 1 [9]: 68.5 pmol/mL | Cyclic AMP produced; 5B3 100 µg/mL + TSH 3 ng/mL; Experiment 2 [9]: 66.5 pmol/mL | % inhibition of TSH stimulation, 5B3 10 µg/mL, mutated TSHR [10]: 0% | % inhibition of TSH stimulation, 5B3 100 µg/mL, mutated TSHR [10]: 4% | Cyclic AMP produced (pmol/mL), 5B3 10 µg/mL + TSH 3 ng/mL, mutated TSHR [10]: 73.7 pmol/mL | Cyclic AMP produced (pmol/mL), 5B3 100 µg/mL + TSH 3 ng/mL, mutated TSHR [10]: 58 pmol/mL | Mutated/wild type (%), 5B3 10 µg/mL + TSH 3 ng/mL [10]: 69% | Mutated/wild type (%), 5B3 100 µg/mL + TSH 3 ng/mL [10]: 56%
